According to PMC9410881:
Each block holds one substance with its values, some of them ahead of it.

Key:
[1] = biological target: Aca10 from Pseudomonas citronellolis (pcAca10), wild type (Pseudomonas citronellolis); experiment: SEC-MALS; Superdex 200 Increase 10/300 GL, SEC buffer (20 mM Tris-HCl pH 8.0, 150 mM NaCl), 0.5 ml/min, 20°C; self-association of Aca10
[2] = biological target: Aca10 D7K variant; experiment: SEC-MALS; conditions: parent: 17.39
[3] = biological target: Aca10 E52R mutant; experiment: SEC-MALS; conditions: parent: 17.39
[4] = biological target: Aca10 G49Y mutant; experiment: SEC-MALS; conditions: parent: 17.39

stoichiometry N [1]: 2
Substance: Aca10 from Pseudomonas citronellolis (pcAca10), wild type (natural protein)

other: MALS molecular weight (MW) [2]: 17 kDa
Substance: Aca10 from Pseudomonas citronellolis (pcAca10), wild type D7K

other: MALS molecular weight (MW) [3]: 14.2 kDa
Substance: Aca10 from Pseudomonas citronellolis (pcAca10), wild type E52R

other: MALS molecular weight (MW) [4]: 10.2 kDa
Substance: Aca10 from Pseudomonas citronellolis (pcAca10), wild type G49Y
